Consider 11 molecules from paper PMC2265480, “Identification of Synaptic Targets of Drosophila Pumilio”.

Data set [1] concerns the target T1, GST-Pum (Pumilio RNA-binding domain) (Drosophila, UniProt P25822 1091-1533).
T1 sequence: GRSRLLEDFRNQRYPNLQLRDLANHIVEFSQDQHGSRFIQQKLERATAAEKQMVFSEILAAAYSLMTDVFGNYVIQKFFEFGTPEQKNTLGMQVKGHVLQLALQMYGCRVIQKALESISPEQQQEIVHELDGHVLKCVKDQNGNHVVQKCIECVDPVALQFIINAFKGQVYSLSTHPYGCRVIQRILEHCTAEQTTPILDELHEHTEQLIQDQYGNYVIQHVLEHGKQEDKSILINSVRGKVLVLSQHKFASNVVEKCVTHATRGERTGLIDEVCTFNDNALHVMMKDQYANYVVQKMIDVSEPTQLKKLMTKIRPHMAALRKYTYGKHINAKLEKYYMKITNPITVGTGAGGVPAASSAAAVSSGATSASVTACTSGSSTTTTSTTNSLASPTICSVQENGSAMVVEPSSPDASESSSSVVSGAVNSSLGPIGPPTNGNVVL
In words: EMSA. Conditions: 5:1 protein:RNA, 10 mM Hepes/KOH pH 7.4, 50 mM KCl, 3 mM MgCl2, 1 mM EDTA, 2 mM DTT, 0.1 mg/ml BSA, 0.1 mg/ml yeast tRNA, 0.01% Tween-20, 0.2 U RNasin, 10% glycerol, 10 ul ….

The target of data set [2] is T2, GST-Pum (Pumilio RNA-binding domain) (Drosophila) (UniProt P25822).
T2 sequence: T1 sequence
Briefly: EMSA. Conditions: 5:1 protein:RNA (50 fmol:10 fmol); one complex; 10 mM Hepes/KOH pH 7.4, 50 mM KCl, 3 mM MgCl2, 1 mM EDTA, 2 mM DTT, 0.1 mg/ml BSA, 0.1 mg/ml yeast tRNA, 0.01% Tween-20, 0.2 U RNasin, 10% glycerol, 10 ul …. (Mobility shift assays separate free from complexed probe on a gel.)

Data set [3] addresses T1, GST-Pum (Pumilio RNA-binding domain). Briefly: EMSA; up to 50 fmol protein:10 fmol RNA; 10 mM Hepes/KOH pH 7.4, 50 mM KCl, 3 mM MgCl2, 1 mM EDTA, 2 mM DTT, 0.1 mg/ml BSA, 0.1 mg/ml yeast tRNA, 0.01% Tween-20, 0.2 U RNasin, 10% glycerol, 10 ul, 20 min room temperature; 5% native gel in 1x TBE. Conditions: protein: recombinant; tags: N-terminal GST; label: radiolabel.

Gad1 3'UTR 704-973 had a binding signal in data set [1] (2 sites) of 35.9 % bound.

mam 3'UTR 642-1110: in data set [1] (2 sites), the binding signal was found to be 73.8 % bound.

In data set [1], EP2237 3'UTR 340-514 yielded a binding signal of 20.5 % bound.

With dlg1 (isoforms A and D) 3'UTR 1485-1539, the binding signal in data set [1] (one complex) was found to be 56.9 % bound.

In turn, “AUUAUUUUGUUGUCGAAAAUUGUACAUAAGCC [hb NRE2]” registered a binding signal in data set [2] of 67.9 % bound.

In data set [1] (one complex), AP-1gamma 3'UTR 85-191 came in with a binding signal of 21.8 % bound.

Csp 3'UTR 1218-1545 returned a binding signal in data set [1] (2 sites) of 57.2 % bound.

In data set [1] (2 sites), shn 3'UTR 809-1013 returned a binding signal of 59 % bound.

In data set [1], Ace 3'UTR 722-1095 yielded a binding signal of 33 % bound.

In the case of dlg1 isoform C 3'UTR 744-829, the binding signal in data set [1] (not bound even at high molar ratio) worked out at 0 % bound.

For GGUAGUGCAUACAACUUCCUU (ssRNA) [CRS random control RNA], the binding result in data set [3] is reported as “no binding”.
